Holding throughout (details): remark: other sources report otherwise
For experiment [1], the target named is recombinant soluble homotrimeric HA, A/Vietnam/1203/04 H5N1 (Influenza A virus A/VietNam/1203/2004(H5N1)). In words: microarray, transfection SN IgG, trimeric HA.
Experiment [2] concerns the target recombinant soluble homotrimeric HA, A/Wisconsin/67/05 H3N2 (Influenza A virus A/Wisconsin/67/2005(H3N2)). The experiment in a line: microarray, transfection SN IgG, trimeric HA.
The target of experiment [3] is recombinant soluble homotrimeric HA, A/South Carolina/1/18 H1N1 (Influenza A virus A/South Carolina/1/18 (H1N1)). In words: microarray, transfection SN IgG, trimeric HA.
The target of experiment [4] is recombinant soluble homotrimeric HA, A/chicken/Vietnam/NCVD-016/08 H5N1 (Influenza A virus A/chicken/Vietnam/NCVD-016/2008(H5N1)). In words: microarray, transfection SN IgG, trimeric HA.
The target in experiment [5] is recombinant soluble homotrimeric HA, A/California/4/09 H1N1 (Influenza A virus A/California/04/2009(H1N1)). The experiment in a line: microarray, transfection SN IgG, trimeric HA.
The target of experiment [6] is recombinant soluble homotrimeric HA, A/Indonesia/5/05 H5N1 (Influenza A virus A/Indonesia/5/2005(H5N1)). The experiment in a line: microarray, transfection SN IgG, trimeric HA.
The target of experiment [7] is recombinant soluble homotrimeric HA, A/northern shoveler/California/HKWF115/07 H6N4 (Influenza A virus A/northern shoveler/California/HKWF115/2007(H6N1)). The experiment in a line: microarray, transfection SN IgG, trimeric HA.
Experiment [8] concerns the target recombinant soluble homotrimeric HA, A/duck/Yangzhou/02/05 H8N4 (Influenza A virus A/duck/Yangzhou/02/2005(H8N4)). In words: microarray, transfection SN IgG, trimeric HA.
The target of experiment [9] is recombinant soluble homotrimeric HA, A/Solomon Islands/3/06 H1N1 (Influenza A virus A/Solomon Islands/3/2006(H1N1)). The experiment in a line: microarray, transfection SN IgG, trimeric HA.
Experiment [10] addresses recombinant soluble homotrimeric HA, A/Anhui/1/05 H5N1 (Influenza A virus A/Anhui/1/2005(H5N1)). The experiment in a line: microarray, transfection SN IgG, trimeric HA.
For experiment [11], the target named is recombinant soluble homotrimeric HA, A/Egypt/3300-NAMRU3/08 H5N1 (Influenza A virus A/Egypt/3300-NAMRU3/2008(H5N1)). In words: microarray, transfection SN IgG, trimeric HA.
For experiment [12], the target named is recombinant soluble homotrimeric HA, A/Japan/305/57 H2N2 (Influenza A virus A/Japan/305/1957(H2N2)). In words: microarray, transfection SN IgG, trimeric HA.
Experiment [13] addresses recombinant soluble homotrimeric HA, A/Hong Kong/156/97 H5N1 (Influenza A virus A/Hong Kong/156/97 (H5N1)). In words: microarray, transfection SN IgG, trimeric HA.
The target of experiment [14] is recombinant homotrimeric HA A/swine/Ontario/01911-2/99 H4N6 (Influenza A virus A/Swine/Ontario/01911-2/99 (H4N6)). The experiment in a line: protein microarray, purified IgG, trimeric HA.
The target of experiment [15] is recombinant homotrimeric HA A/duck/Yangzhou/02/05 H8N4 (Influenza A virus A/duck/Yangzhou/02/2005(H8N4)). In words: protein microarray, purified IgG, trimeric HA.
In experiment [16] the target is recombinant soluble homotrimeric HA of A/Netherlands/219/03 (H7N7) (Influenza A virus A/Netherlands/219/03(H7N7)). In words: trimeric HA microarray, transfection supernatant set 2.
Experiment [17] has as its target recombinant soluble homotrimeric HA of A/Solomon Islands/3/06 (H1N1) (Influenza A virus A/Solomon Islands/3/2006(H1N1)). The experiment is described as above.
In experiment [18] the target is recombinant soluble homotrimeric HA of A/California/4/09 (H1N1) (Influenza A virus A/California/04/2009(H1N1)). The description is as above.
Experiment [19] concerns the target recombinant soluble homotrimeric HA of A/Japan/305/57 (H2N2) (Influenza A virus A/Japan/305/1957(H2N2)). The experiment is described as above.
Experiment [20] concerns the target recombinant soluble homotrimeric HA of A/Anhui/1/05 (H5N1) (Influenza A virus A/Anhui/1/2005(H5N1)). Described as above.
The target of experiment [21] is recombinant soluble homotrimeric HA of A/Indonesia/5/05 (H5N1) (Influenza A virus A/Indonesia/5/2005(H5N1)). The experiment is described as above.
Experiment [22] concerns the target recombinant soluble homotrimeric HA of A/chicken/Vietnam/NCVD-016/08 (H5N1) (Influenza A virus A/chicken/Vietnam/NCVD-016/2008(H5N1)). The experiment is described as above.
In experiment [23] the target is recombinant soluble homotrimeric HA of A/South Carolina/1/18 (H1N1) (Influenza A virus A/South Carolina/1/18 (H1N1)). Described as above.
The target of experiment [24] is T1, recombinant soluble homotrimeric HA of A/Egypt/3300-NAMRU3/08 (H5N1) (Influenza A virus A/Egypt/3300-NAMRU3/2008(H5N1)). The experiment is described as above.
In experiment [25] the target is recombinant soluble homotrimeric HA of A/Vietnam/1203/04 (H5N1) (Influenza A virus A/VietNam/1203/2004(H5N1)). The description is as above.
For experiment [26], the target named is T1, recombinant soluble homotrimeric HA of …. In words: HA microarray, BCC supernatant.

B1: TCN-557 (5081_A04) (antibody, V domains shown)
VH: QVQLVQSGAEVKKPGASVKVSCKASGHTFTGYYIHWVRQAPGQGLEWMGWINPDSGATSSAQNFQGRVTMTGDTSSSTAYMELSRLSFDDTAVYYCARVLFTSPFDFWGEGTLVTVSS
VL: QAVVTQEPSLAVSPGGTVTLTCGSSTGAVTRGHYPYWFQQKPGQAPRALIYDSAGNRHSWTPARFSGSLLGGKAALTLSGAQPEDEAEYYCLLSYSGVWVFGGGTKLTVL
For the molecule B1, the Trimeric HA Binding: RLU stood at 21300 RLU in [1]; 46100 RLU in experiment [2]; 44900 RLU in experiment [3]; 23300 RLU in experiment [4]; 44400 RLU in experiment [5]; 22200 RLU in [6]. In addition, the Trimeric HA Binding: RLU worked out at 49600 RLU in experiment [7]; 24000 RLU in experiment [8]; 27000 RLU in experiment [9]; 20000 RLU in [10]; 26400 RLU in experiment [11]; 27300 RLU in experiment [12]. For the same molecule, the Trimeric HA Binding: RLU in experiment [13] was found to be 27100 RLU; in experiment [14], 19200 RLU; in experiment [15] it was 27200 RLU.

B2: TCN-522 (3212_I12) (antibody, V domains shown)
VH: QVQLQQWGAGLLKPSETLSLTCTVSGGSLTDYSWNWIRQPPGKGLEWIGDTLHNGYTNYNPSLRGRVSISIDTSKNQVSLRLTSVTAADTALYYCARGSGGYGGFDYFGKLRTWDFWGQGTLVTVSS
VL: DIQLTQSPSSLSASVGDRVTITCRASQGIRNDLGWYQQKPGNAPKRLIFGASSLQSGVPSRFSGSGSGTEFTLTISSLQPEDFATYYCLQHNSYPYTFGQGTKLEIK
As for B2, the Trimeric HA Binding: RLU in experiment [16] was determined as 2170 RLU; in experiment [17], 17300 RLU; in experiment [18], 37500 RLU; in [19], 11900 RLU; in [20] it was 2030 RLU; in [21], 50500 RLU. For the same molecule, the Trimeric HA Binding: RLU worked out at 49300 RLU in [22]; 39600 RLU in experiment [23]; 55400 RLU in [24]; 48200 RLU in experiment [25]; 73 RLU in experiment [14].

B3: TCN-555 (5246_L16) (antibody, V domains shown)
VH: QVQLVQSGAEVKRPGSSVKVSCTASGGIFRKNAISWVRQAPGQGLEWMGGIIAVFNTANYAQKFQNRVKITADESGNTAYMELSSLTSDDTAVYYCASHPKYFYGSGSYPDFWGQGTLVTVSS
VL: QSALTQPRSVSGSPGQSITISCTGGSSDIGASNSVSWYQQHPGKAPKLVIFDVTERPSGVPHRFSGSKSGNTASLTVSGLQPDDEADYFCCAYGGKYLVVFGGGTKVTVL
Turning to B3, the Trimeric HA Binding: RLU in [26] worked out at 42700 RLU; in [1], 19300 RLU; in experiment [2], 14700 RLU; in experiment [3] it was 48000 RLU; in experiment [4], 35200 RLU; in [5] it was 20200 RLU. The Trimeric HA Binding: RLU is 33900 RLU in experiment [6]; 28700 RLU in experiment [7]; 8540 RLU in [8]; 44600 RLU in experiment [9]; 12200 RLU in experiment [10]; 20000 RLU in experiment [11]. Besides, the Trimeric HA Binding: RLU was determined as 16700 RLU in experiment [12], 36300 RLU in [13] and 375 RLU in experiment [15].

B4: TCN-563 (5237_B21) (antibody, V domains shown)
VH: QVQLAQSGAEVKRPGSSVKVSCTASGGIFRKNAISWVRQAPGQGLEWMGGIIAVFNTANYAQKFQGRVKITADESGNTAYMELSSLRSDDTAVYYCASHPKYFYGSGSYPDFWGQGTLVTVSS
VL: QSALTQPRSVSGSPGQSVTISCTGSSSDVGASNSVSWYQQHPGKAPKLVIYDVTERPSGVPHRFSGSKSGNTASLTVSGLQPEDEADYFCCAYGGKYLVVFGGGTKVTVL
For B4, the Trimeric HA Binding: RLU in experiment [16] turned out to be 5420 RLU; in experiment [17], 26500 RLU; in experiment [18], 21200 RLU; in experiment [19], 11200 RLU; in [20], 1570 RLU; in experiment [21], 47300 RLU. For the same molecule, the Trimeric HA Binding: RLU was determined as 36300 RLU in experiment [22]; 17800 RLU in [23]; 23900 RLU in [24]; 31500 RLU in [25]; 27500 RLU in [26].

B5: TCN-553 (5261_C18) (antibody, V domains shown)
VH: QVQVVQSGTEVKKPGSSVKVSCQTSGGRFMSYAITWVRQAPGQGLEWMGGIVPVFGTANYAQKFQGRVTITTDDSTRTAYMELSSLRSEDTAVYYCGFRYGSGYGFDSWGQGTLVTVSS
VL: EIVLTQSPGTLSLSPGERATLSCRASQSVSSSYLAWYQKKPGQAPRLLIYGASTRATGIPDRFTGSGSGTDFTLSISRLEPEDFAVYYCQHFGTSVFTFGGGTKVEIK
Take B5: the Trimeric HA Binding: RLU came out at 18800 RLU in experiment [26]; 19200 RLU in experiment [1]; 25200 RLU in [2]; 41300 RLU in [3]; 34700 RLU in experiment [4]; 23300 RLU in [5]. Besides, the Trimeric HA Binding: RLU stood at 31200 RLU in experiment [6]; 32500 RLU in experiment [7]; 12500 RLU in experiment [8]; 49600 RLU in experiment [9]; 8550 RLU in experiment [10]; 19500 RLU in experiment [11]. Moreover, the results for the Trimeric HA Binding: RLU in experiment [12] and in experiment [13] were 39800 RLU and 36300 RLU, respectively.

B6: TCN-527 (5086_C06) (antibody, V domains shown)
VH: QVQLQESGPGLVKPSETLSLNCAVSGGSISNYYWSWIRQPPGKGLEWIGYISYNGRPKYNPSLTSRVTISVDTSKDQFSLELRSVTAADTALYYCARETRFGELLSPYDAFEIWGQGTMVTVSS
VL: DIQMTQSPSSLSASVGDRVTMTCRASQNIRSYLNWYQQRPGTAPKLLIYAASTLHSGVPSRFSGGGSGTDFTLTINNLQPEDFASYYCQQSYDNPQTFGQGTKVEIK
B6: the Trimeric HA Binding: RLU in experiment [16] turned out to be 49100 RLU; in [17] it was 19700 RLU; in [18], 21500 RLU; in [19], 20800 RLU; in experiment [20] it was 15200 RLU; in experiment [21], 23400 RLU. Further, the Trimeric HA Binding: RLU in experiment [22] came to 20100 RLU; in experiment [23], 48100 RLU; in experiment [24], 23600 RLU; in experiment [25], 20600 RLU; in [14] it was 11100 RLU; in experiment [15], 26000 RLU.
